Measured values reported in US20150374794A1 (Novo Nordisk, published 2015).
Numbered stars: 1 amine (or outer) side, 2 acyl side, 3 side chain; on linkers, the order of the positions; unused ones are H or OH. Square brackets hold non-standard residues; d marks the D form. Side chains are listed from the residue outwards. Ends that are not written are not given here. * marks the point of attachment. C18 diacid = O=C(O)CCCCCCCCCCCCCCCCC(=O)*; γGlu = O=C(O)[C@H](CCC(=O)[*:2])N[*:1]; AEEA = NCCOCCOCC(=O)O; Aib = CC(C)(N)C(=O)O

What was measured:
human glucagon receptor = human glucagon receptor (human, UniProt P47871 26-477); assay: cell-based or functional assay
human GLP-1 receptor = human GLP-1 receptor (human, UniProt P43220 24-463); assay: cell-based or functional assay

Chain of human glucagon receptor (P47871 26-477): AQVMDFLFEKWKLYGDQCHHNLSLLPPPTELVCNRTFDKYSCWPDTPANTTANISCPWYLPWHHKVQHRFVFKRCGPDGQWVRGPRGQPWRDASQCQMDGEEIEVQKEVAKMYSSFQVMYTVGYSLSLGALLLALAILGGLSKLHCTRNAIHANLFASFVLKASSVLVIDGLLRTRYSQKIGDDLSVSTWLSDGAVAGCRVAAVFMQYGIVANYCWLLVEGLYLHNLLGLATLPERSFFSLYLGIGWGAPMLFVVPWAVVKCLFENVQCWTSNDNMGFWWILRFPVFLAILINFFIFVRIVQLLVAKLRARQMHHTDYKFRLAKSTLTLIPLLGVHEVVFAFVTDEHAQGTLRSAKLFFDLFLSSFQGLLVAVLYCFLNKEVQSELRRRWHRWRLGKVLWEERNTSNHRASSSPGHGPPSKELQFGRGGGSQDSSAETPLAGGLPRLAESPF

Binder	EC50 GlucR, CRE luciferase reporter gene assay in BHK cells (human glucagon receptor) [pM]	EC50 GLP-1R, CRE luciferase reporter gene assay in BHK cells (human GLP-1 receptor) [pM]
H[Aib]QGTFTSDLSKYLDK([γGlu-γGlu-AEEA-AEEA-γGlu-C18 diacid])RRARDFVQWLLST-NH2 (N-terminus assumed; SMILES CC(C)C[C@H](NC(=O)[C@H](Cc1ccc(O)cc1)NC(=O)[C@H](CCCCN)NC(=O)[C@H](CO)NC(=O)[C@H](CC(C)C)NC(=O)[C@H](CC(=O)O)NC(=O)[C@H](CO)NC(=O)[C@@H](NC(=O)[C@H](Cc1ccccc1)NC(=O)[C@@H](NC(=O)CNC(=O)[C@H](CCC(N)=O)NC(=O)C(C)(C)NC(=O)[C@@H](N)Cc1c[nH]cn1)[C@@H](C)O)[C@@H](C)O)C(=O)N[C@@H](CC(=O)O)C(=O)N[C@@H](CCCCNC(=O)CC[C@H](NC(=O)CC[C@H](NC(=O)COCCOCCNC(=O)COCCOCCNC(=O)CC[C@H](NC(=O)CCCCCCCCCCCCCCCCC(=O)O)C(=O)O)C(=O)O)C(=O)O)C(=O)N[C@@H](CCCNC(=N)N)C(=O)N[C@@H](CCCNC(=N)N)C(=O)N[C@@H](C)C(=O)N[C@@H](CCCNC(=N)N)C(=O)N[C@@H](CC(=O)O)C(=O)N[C@@H](Cc1ccccc1)C(=O)N[C@H](C(=O)N[C@@H](CCC(N)=O)C(=O)N[C@@H](Cc1c[nH]c2ccccc12)C(=O)N[C@@H](CC(C)C)C(=O)N[C@@H](CC(C)C)C(=O)N[C@@H](CO)C(=O)N[C@H](C(N)=O)[C@@H](C)O)C(C)C)	54	8
H[Aib]QGTFTSDLSKYLDSRRARDFVQWLLSK([γGlu-γGlu-AEEA-AEEA-γGlu-C18 diacid])-NH2 (N-terminus assumed; SMILES CC(C)C[C@H](NC(=O)[C@H](CC(C)C)NC(=O)[C@H](Cc1c[nH]c2ccccc12)NC(=O)[C@H](CCC(N)=O)NC(=O)[C@@H](NC(=O)[C@H](Cc1ccccc1)NC(=O)[C@H](CC(=O)O)NC(=O)[C@H](CCCNC(=N)N)NC(=O)[C@H](C)NC(=O)[C@H](CCCNC(=N)N)NC(=O)[C@H](CCCNC(=N)N)NC(=O)[C@H](CO)NC(=O)[C@H](CC(=O)O)NC(=O)[C@H](CC(C)C)NC(=O)[C@H](Cc1ccc(O)cc1)NC(=O)[C@H](CCCCN)NC(=O)[C@H](CO)NC(=O)[C@H](CC(C)C)NC(=O)[C@H](CC(=O)O)NC(=O)[C@H](CO)NC(=O)[C@@H](NC(=O)[C@H](Cc1ccccc1)NC(=O)[C@@H](NC(=O)CNC(=O)[C@H](CCC(N)=O)NC(=O)C(C)(C)NC(=O)[C@@H](N)Cc1c[nH]cn1)[C@@H](C)O)[C@@H](C)O)C(C)C)C(=O)N[C@@H](CO)C(=O)N[C@@H](CCCCNC(=O)CC[C@H](NC(=O)CC[C@H](NC(=O)COCCOCCNC(=O)COCCOCCNC(=O)CC[C@H](NC(=O)CCCCCCCCCCCCCCCCC(=O)O)C(=O)O)C(=O)O)C(=O)O)C(N)=O)	109	5
H[Aib]HGTFTSDLSKYLESKRAREFVQWLLK([γGlu-γGlu-AEEA-AEEA-γGlu-C18 diacid])T-NH2 (N-terminus assumed; SMILES CC(C)C[C@H](NC(=O)[C@H](Cc1ccc(O)cc1)NC(=O)[C@H](CCCCN)NC(=O)[C@H](CO)NC(=O)[C@H](CC(C)C)NC(=O)[C@H](CC(=O)O)NC(=O)[C@H](CO)NC(=O)[C@@H](NC(=O)[C@H](Cc1ccccc1)NC(=O)[C@@H](NC(=O)CNC(=O)[C@H](Cc1c[nH]cn1)NC(=O)C(C)(C)NC(=O)[C@@H](N)Cc1c[nH]cn1)[C@@H](C)O)[C@@H](C)O)C(=O)N[C@@H](CCC(=O)O)C(=O)N[C@@H](CO)C(=O)N[C@@H](CCCCN)C(=O)N[C@@H](CCCNC(=N)N)C(=O)N[C@@H](C)C(=O)N[C@@H](CCCNC(=N)N)C(=O)N[C@@H](CCC(=O)O)C(=O)N[C@@H](Cc1ccccc1)C(=O)N[C@H](C(=O)N[C@@H](CCC(N)=O)C(=O)N[C@@H](Cc1c[nH]c2ccccc12)C(=O)N[C@@H](CC(C)C)C(=O)N[C@@H](CC(C)C)C(=O)N[C@@H](CCCCNC(=O)CC[C@H](NC(=O)CC[C@H](NC(=O)COCCOCCNC(=O)COCCOCCNC(=O)CC[C@H](NC(=O)CCCCCCCCCCCCCCCCC(=O)O)C(=O)O)C(=O)O)C(=O)O)C(=O)N[C@H](C(N)=O)[C@@H](C)O)C(C)C)	1.1	–
H[Aib]HGTFTSDLSKYLESKRAREFVQWLLK([γGlu-γGlu-γGlu-C18 diacid])T-NH2 (N-terminus assumed; SMILES CC(C)C[C@H](NC(=O)[C@H](Cc1ccc(O)cc1)NC(=O)[C@H](CCCCN)NC(=O)[C@H](CO)NC(=O)[C@H](CC(C)C)NC(=O)[C@H](CC(=O)O)NC(=O)[C@H](CO)NC(=O)[C@@H](NC(=O)[C@H](Cc1ccccc1)NC(=O)[C@@H](NC(=O)CNC(=O)[C@H](Cc1c[nH]cn1)NC(=O)C(C)(C)NC(=O)[C@@H](N)Cc1c[nH]cn1)[C@@H](C)O)[C@@H](C)O)C(=O)N[C@@H](CCC(=O)O)C(=O)N[C@@H](CO)C(=O)N[C@@H](CCCCN)C(=O)N[C@@H](CCCNC(=N)N)C(=O)N[C@@H](C)C(=O)N[C@@H](CCCNC(=N)N)C(=O)N[C@@H](CCC(=O)O)C(=O)N[C@@H](Cc1ccccc1)C(=O)N[C@H](C(=O)N[C@@H](CCC(N)=O)C(=O)N[C@@H](Cc1c[nH]c2ccccc12)C(=O)N[C@@H](CC(C)C)C(=O)N[C@@H](CC(C)C)C(=O)N[C@@H](CCCCNC(=O)CC[C@H](NC(=O)CC[C@H](NC(=O)CC[C@H](NC(=O)CCCCCCCCCCCCCCCCC(=O)O)C(=O)O)C(=O)O)C(=O)O)C(=O)N[C@H](C(N)=O)[C@@H](C)O)C(C)C)	2.9	–
H[Aib]QGTFTSDLSKYLDSRRARDFVQWLLSTK([γGlu-γGlu-AEEA-AEEA-γGlu-C18 diacid])-NH2 (N-terminus assumed; SMILES CC(C)C[C@H](NC(=O)[C@H](Cc1ccc(O)cc1)NC(=O)[C@H](CCCCN)NC(=O)[C@H](CO)NC(=O)[C@H](CC(C)C)NC(=O)[C@H](CC(=O)O)NC(=O)[C@H](CO)NC(=O)[C@@H](NC(=O)[C@H](Cc1ccccc1)NC(=O)[C@@H](NC(=O)CNC(=O)[C@H](CCC(N)=O)NC(=O)C(C)(C)NC(=O)[C@@H](N)Cc1c[nH]cn1)[C@@H](C)O)[C@@H](C)O)C(=O)N[C@@H](CC(=O)O)C(=O)N[C@@H](CO)C(=O)N[C@@H](CCCNC(=N)N)C(=O)N[C@@H](CCCNC(=N)N)C(=O)N[C@@H](C)C(=O)N[C@@H](CCCNC(=N)N)C(=O)N[C@@H](CC(=O)O)C(=O)N[C@@H](Cc1ccccc1)C(=O)N[C@H](C(=O)N[C@@H](CCC(N)=O)C(=O)N[C@@H](Cc1c[nH]c2ccccc12)C(=O)N[C@@H](CC(C)C)C(=O)N[C@@H](CC(C)C)C(=O)N[C@@H](CO)C(=O)N[C@H](C(=O)N[C@@H](CCCCNC(=O)CC[C@H](NC(=O)CC[C@H](NC(=O)COCCOCCNC(=O)COCCOCCNC(=O)CC[C@H](NC(=O)CCCCCCCCCCCCCCCCC(=O)O)C(=O)O)C(=O)O)C(=O)O)C(N)=O)[C@@H](C)O)C(C)C)	1210	20
